US20250195679A1, “ANTIBODY-DRUG CONJUGATE AND USE THEREOF” (SHANGHAI HUAOTA BIOPHARMACEUTICAL CO., LTD., priority 2022, published 2025)

B1: Antibody-drug conjugate 1: 900698 antibody cysteine-conjugated to SN-38 via Mc-VC-PAB-DMEDA-PEG linker, DAR about 7.8 (conjugate)
VH: QVQLVESGGGLVKPGGSLRLSCAASGFTFSKYAMSWIRQAPGKGLEWVAEISSGGGYINYADSVKGRFTISRDNAKNSLYLQMNSLRAEDTAVYYCARAIYYYGSSYNYYAMDYWGQGTTVTVSS
VL: DIQMTQSPSSLSASVGDRVTITCRASQDVGTAEAWYQQKPGKAPKLLIYWASTRHTGVPSRFSGSGSGTDFTLTISSLQPEDFATYYCQQYSSYPLTFGQGTKLEIK
B2: 900698: anti-CD73 antibody, VH SEQ ID NO: 35, VL SEQ ID NO: 34 (antibody, V domains shown)
VH: B1 VH
VL: B1 VL
modifications: 900696, 900698 (VH); 900695, 900698 (VL)
B3: Antibody-drug conjugate 2: 900698 antibody cysteine-conjugated to SN-38 via MP2-VC-PAB-DMEDA-PEG linker, DAR about 7.8 (conjugate)
VH: B1 VH
VL: B1 VL

System: MDA-MB-231 cells
Test: Killing of tumor cells highly expressing CD73 (CellTiter-Glo)
Assay type: cell-based, human
Details: cells highly expressing CD73, 5 days, FIG. 6
Protocol: (§1) The specific procedures were as follows: MDA-MB-231 cells and MCF-7 cells were prepared into cell suspensions at densities of 8E4 cells/mL and 7.5E5 cells/mL, respectively, which were then each added onto a 96-well cell culture plate at 100 μL per well. The 96-well cell culture plate was sealed with liquid and then incubated in an incubator at 37° C. with 5% CO2 for 6 h. With an assay medium, the antibody-drug conjugate 1, the antibody-drug conjugate 2, and the 900698 naked antibody were each diluted to 400 μg/mL and then subjected to a 2-fold dilution to give 8 concentrations, resulting in a total of 9 concentrations. The same dilution procedure was performed for the Buffer solution as for the antibody-drug conjugate 1. The gradient dilution solutions were each added at 50 μL/well to the 96-well cell culture plate after the above incubation was completed. Each sample well was then supplemented with 50 μL of the corresponding assay medium. The 96-well cell culture plate was further incubated in an incubator at 37° C. with 5% CO2 for another 5 days. After the incubation was completed, the 96-well plate was removed from the incubator, 100 μL of culture medium was aspirated from each well, and then the equilibrated Celltiter-Glo Luminescent Cell Viability Assay reagent (Promega, #G7573) was added at 100 μL/well. After shaking for reaction in the dark at room temperature for 10 min, 100 μL of culture medium was taken from each well, transferred to the corresponding well of a 96-well black plate, and then subjected to full-wavelength detection using a microplate reader.

Row | Molecule | killing effect on MDA-MB-231 cells
1 | B1 | excellent killing effects
2 | B2 | no killing effect
3 | B3 | excellent killing effects

System: MCF-7 cells
Test: Killing of tumor cells not expressing CD73 (CellTiter-Glo)
Assay type: cell-based
Details: cells not expressing CD73, 5 days, FIG. 5
Protocol: as §1

Row | Molecule | killing effect on MCF-7 cells
4 | B1 | no killing effect
5 | B2 | no killing effect
6 | B3 | no killing effect

Target: T1, Human CD73 (Homo sapiens, UniProt P21589)
T1 sequence (P21589 27-547 limits assumed): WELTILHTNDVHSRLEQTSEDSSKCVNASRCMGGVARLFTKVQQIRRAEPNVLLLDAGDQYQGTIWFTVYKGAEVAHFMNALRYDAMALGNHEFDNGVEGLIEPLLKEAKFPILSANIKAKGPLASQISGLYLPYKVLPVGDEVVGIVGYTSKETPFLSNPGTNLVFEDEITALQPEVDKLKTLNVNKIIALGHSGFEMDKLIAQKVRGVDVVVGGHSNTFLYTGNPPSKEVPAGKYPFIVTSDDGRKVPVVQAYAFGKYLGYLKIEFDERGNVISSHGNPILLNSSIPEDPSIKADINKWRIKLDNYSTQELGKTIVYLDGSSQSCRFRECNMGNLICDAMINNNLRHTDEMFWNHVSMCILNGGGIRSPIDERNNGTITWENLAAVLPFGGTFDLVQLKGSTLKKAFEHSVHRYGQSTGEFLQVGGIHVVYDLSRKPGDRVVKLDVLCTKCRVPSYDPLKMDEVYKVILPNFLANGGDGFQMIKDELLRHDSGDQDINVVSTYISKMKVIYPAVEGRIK
Test: Inhibition of enzymatic activity of soluble recombinant CD73 protein (AMP/ATP, CellTiter-Glo)
Assay type: biochemical
Set-up: purchased ACRO CD3-H52H7-100 μg
Details: FIG. 3; the three samples compared with each other
Protocol: The inhibitory effects of the antibody-drug conjugate 1 and the antibody-drug conjugate 2 prepared in Example 1 and the 900698 naked antibody on the enzymatic activity of a recombinant CD73 protein (ACRO, #CD3-H52H7-100 μg) were assayed. The specific procedures were as follows: The series of CD73 antigen-binding proteins were diluted to 120 μg/mL with TM Buffer (ROCKLAND, #MB-059), followed by a 3-fold dilution across 10 gradients. The diluted proteins were each added at 25 µL/well to a 96-well plate. The recombinant CD73 protein was then diluted to 0.3 μg/mL with TM Buffer (ROCKLAND, #MB-059) and added at 25 μL/well to the 96-well plate. The mixture was mixed uniformly. Then, diluted AMP and ATP were mixed at a ratio of 1:1, and the mixture was added at 50 μL/well to the above 96-well plate. The resulting mixture was allowed to react for 15 min. Finally, a CellTiter-Glo® substrate was added to a CellTiter-Glo® buffer. The mixture was mixed uniformly and equilibrated to room temperature, and then added at 100 μL/well to the wells to be tested. The resulting mixture was allowed to react at room temperature for 10 min and then subjected to full-wavelength detection.
The results for the inhibition of the enzymatic activity of the soluble recombinant CD73 antigen protein (ACRO, #CD3-H52H7-100 μg) by the antibody-drug conjugate 1, the antibody-drug conjugate 2, and the 900698 naked antibody are shown in FIG. 3 (represented as 1-3 in FIG. 3, respectively).

Row | Molecule | inhibitory effect on the enzymatic activity of the soluble recombinant CD73 protein
7 | B1 | comparable inhibitory effects
8 | B2 | comparable inhibitory effects
9 | B3 | comparable inhibitory effects

Target: T1, Human CD73
Test: Biacore binding kinetics with human CD73 protein
Set-up: purchased ACRO Biosystems CD3-H52H7
Details: Human CD73, Biacore T200, protein A chip, 25° C., 1:1 binding model
Protocol: The binding kinetics of the antibody-drug conjugate 1 and the antibody-drug conjugate 2 prepared in Example 1 and the 900698 naked antibody with a human CD73 protein (manufacturer: ACRO Biosystems, Cat. No. CD3-H52H7) and a monkey CD73 protein (manufacturer: Novoprotein, Cat. No. CI21) were assayed using Biacore (GE, model: T200), with an assay buffer of HBS-EP+ (pH 7.4) and a protein A chip (manufacturer: GE, Cat. No. 29-1275-56).
The temperature for the sample compartment and the flow path was set to 25° C. The protein A chip captured each antigen-binding protein as a ligand, fixing about 100 RU. The human CD73 protein was diluted with the assay buffer to a series of concentrations of 50 nM, 25 nM, 12.5 nM, 6.25 nM, 3.12 nM, and 1.57 nM, serving as analytes, and the assay buffer was used as a 0 concentration control. At a flow rate of 30 μL/min, association was conducted for 120 s, and dissociation was conducted for 600 s. Glycine (10 mM, pH 1.5) was used for regeneration at a flow rate of 50 μL/min for 60 s in a multi-cycle kinetic assay. A 1:1 binding model was used, and the Fit Local mode was selected to determine the association rate constant (ka), dissociation rate constant (kd), and equilibrium dissociation constant (KD).

Row | Molecule | ka [M⁻¹ s⁻¹] | kd [s⁻¹]
10 | B1 | 381000 | 0.000129
11 | B2 | 147000 | 0.000104
12 | B3 | 643000 | 0.000228
